Source: US6379928

What was measured:
Assay in all cases: cell-based or functional assay
[1] = target: chymosin polypeptide secreted by fungi transformed with pGRG1 (A. niger glucoamylase signal peptide fused to bovine prochymosin) (bovine) (UniProt P00794)
[2] = target: chymosin polypeptide secreted by fungi transformed with pGRG2 (A. niger glucoamylase signal peptide and propeptide fused to bovine prochymosin) (bovine) (UniProt P00794)
[3] = target: chymosin polypeptide secreted by fungi transformed with pGRG3 (bovine preprochymosin under the glucoamylase promoter) (bovine) (UniProt P00794)

- Chymosin Activity (µg/ml) of pGRG1 broth after preincubation with pepstatin (0.2 without pepstatin) [1]: 0.05 µg/ml
- Chymosin Activity (µg/ml) of pGRG2 broth after preincubation with pepstatin (0.1 without pepstatin) [2]: 0 µg/ml
- Chymosin Activity (µg/ml) of pGRG3 broth after preincubation with pepstatin (3 without pepstatin) [3]: 0.6 µg/ml
Substance: pepstatin (peptide)
